Changes are numbered by the printed parent chain.
B1: HSB2B clone 28A9D11 (antibody, V domains shown)
VH: DVQLQESGPGLVKPSQSLSLTCSVTGYSITSGYYWNWIRQFPGNKLEWMGYISYDGSNNYNPSLKNRISITRDTSKNQFFLKLNSVTTEDTATYYCARDGTTVVATLAYWGQGTLVTVSA
VL: QIVLTQSPAIMSASPGEKVTISCSASSSVSYMYWYQQKPGSSPKPWIYRTSNLASGVPARFSGSGSGTSYSLTISSMEAEDAATYYCQQYHSYPPTFGAGTKLELK
notes: Mouse IgG, tested as hybridoma supernatant
B2: 28A9: mouse IgG monoclonal antibody specific for the Bc12:Bim heterodimer; Hv SEQ ID NO: 17, Lv SEQ ID NO: 21 (antibody, V domains shown)
VH: B1 VH
VL: B1 VL
B3: HSB2B clone 10C10F7 (antibody, V domains shown)
VH: QVQLQQPGAELVKPGASVKLSCKASGYTFTSYWMHWVKQRPGRGLEWIGRIDPNSGGTKSNEKFNNKATLTVDKSSSTAYMQLSSLTSEDSAVYYCARWWDYDYFDYWGQGTTLTVSS
VL: DIVMTQSPSSLTVTAGEKVTMSCKSSQSLLNSGNQKNYLTWYQQKPGQPPKLLIYWASTRESGVPDRFTGSGSGTDFTLTISNVQAEDLAVYYCQNDYNYPLTFGAGTKLELK
notes: Mouse IgG, tested as hybridoma supernatant; also called HSB2B mAb 10C10
B4: 2H3: mouse IgG monoclonal antibody specific for the Bc12:Bim heterodimer; Hv SEQ ID NO: 25, Lv SEQ ID NO: 29 (antibody, V domains shown)
VH: B3 VH with A16T, K23Q, T30A, S60Y, N65K, N66S, A68V, S75P, T78A
VL: B3 VL with N37R, N83S, A106S
B5: 10C10: mouse IgG monoclonal antibody specific for the Bc12:Bim heterodimer; Hv SEQ ID NO: 1, Lv SEQ ID NO: 5 (antibody, V domains shown)
VH: B3 VH
VL: B3 VL
B6: HSB2B clone 2H3G7 (antibody, V domains shown)
VH: B3 VH with A16T, K23Q, T30A, S60Y, N65K, N66S, A68V, S75P, T78A
VL: B3 VL with N37R, N83S, A106S
notes: Mouse IgG, tested as hybridoma supernatant; also called HSB2B mAb 2H3

Columns and labels:
[1] = molecular target: T1, bovine serum albumin (BSA) (bovine, UniProt P02769 25-607); experiment: ELISA, serially diluted hybridoma supernatant on glutathione plates
T1 construct: Control antigen
T1 sequence (P02769 25-607 limits assumed): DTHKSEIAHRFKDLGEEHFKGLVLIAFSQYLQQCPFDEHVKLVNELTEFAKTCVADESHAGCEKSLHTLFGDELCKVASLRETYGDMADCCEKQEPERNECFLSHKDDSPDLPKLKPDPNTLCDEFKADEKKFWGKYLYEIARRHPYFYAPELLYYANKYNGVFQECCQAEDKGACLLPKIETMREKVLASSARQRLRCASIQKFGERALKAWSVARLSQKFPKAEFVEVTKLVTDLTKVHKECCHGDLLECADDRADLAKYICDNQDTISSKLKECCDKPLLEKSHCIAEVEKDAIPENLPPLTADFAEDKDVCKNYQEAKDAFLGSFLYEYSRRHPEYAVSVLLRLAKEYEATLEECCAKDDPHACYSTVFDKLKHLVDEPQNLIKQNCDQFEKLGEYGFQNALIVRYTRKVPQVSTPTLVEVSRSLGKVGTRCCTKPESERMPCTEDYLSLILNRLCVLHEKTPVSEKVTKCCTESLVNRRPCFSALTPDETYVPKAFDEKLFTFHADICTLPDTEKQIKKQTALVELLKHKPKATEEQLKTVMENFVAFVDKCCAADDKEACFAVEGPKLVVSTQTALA
Description: (§1) This class of heterodimer specific Bc12:Bim reactive monoclonal antibodies are otherwise known as “HSB2B”. […] As controls, reactivity with Bc1xL:Bim, Bc12 and Bc1xL monomers, and bovine serum albumin (BSA) were also screened against. To adhere the Bc1xL and Bc12 to the plates, each was expressed as a recombinant fusion protein with GST at the N-terminus (i.e. GST_Bc12 and GST_Bc1xL). Once adhered to the plate, incubations were either performed with a Bim peptide (which fits into the BH3-binding pocket of Bc12 family members), or PBS (thus retaining the monomeric confirmation). Hybridomas supernatants were subsequently incubated with the coated antigens and detected with HRP conjugated anti-mouse IgG. The reaction was developed with TMB substrate and stopped with sulphuric acid. Gluathione plate wells were scanned using a wavelength filter with an optical density of 450 nanometres (OD₄₅₀).

[2] = molecular target: T2, GST_Bc1xL (Bc1xL monomer) (human, UniProt Q07817 1-209); experiment: as above
T2 construct: also called BclxL monomer; not shown: GST (glutathione S-transferase) fused at the N-terminus
T2 sequence (Q07817 1-209): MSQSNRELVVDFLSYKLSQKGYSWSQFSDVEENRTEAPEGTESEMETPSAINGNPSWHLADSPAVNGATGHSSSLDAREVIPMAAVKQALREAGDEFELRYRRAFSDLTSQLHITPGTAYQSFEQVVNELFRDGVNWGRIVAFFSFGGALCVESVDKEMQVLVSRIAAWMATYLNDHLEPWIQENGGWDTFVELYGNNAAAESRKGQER
Description: as §1

[3] = molecular target: ABT199 in a heterodimer with Bc12 (Homo sapiens, UniProt P10415); experiment: ELISA reactivity with different Bc12 and Bc1_XL heterodimers; format: binding; conditions: FIG. 8; signal relative to Bc12:BIM heterodimer
Chain of ABT199 in a heterodimer with Bc12 (P10415 whole entry, one chain of several): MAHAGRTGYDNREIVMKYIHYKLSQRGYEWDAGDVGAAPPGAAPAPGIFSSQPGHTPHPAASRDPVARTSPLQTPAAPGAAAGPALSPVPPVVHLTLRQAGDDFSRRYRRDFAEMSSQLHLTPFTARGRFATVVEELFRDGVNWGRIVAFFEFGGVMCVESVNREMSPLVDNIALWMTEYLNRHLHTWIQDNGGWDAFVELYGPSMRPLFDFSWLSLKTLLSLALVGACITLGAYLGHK
From the text: (§2) All levels of reactivity are tabulated as percentage magnitudes of signal relative to those yielded with the Bc12:BIM heterodimer. […] 28A9 has low ABT199 cross-reactivity.

[4] = molecular target: Bc12:BIM heterodimer (Homo sapiens, UniProt P10415); experiment: as above; format: binding; conditions: FIG. 8
Chain of Bc12:BIM heterodimer (P10415 whole entry): as the sequence (P10415 whole entry, one chain of several) above
Chain of Bc12:BIM heterodimer (O43521 whole entry partner): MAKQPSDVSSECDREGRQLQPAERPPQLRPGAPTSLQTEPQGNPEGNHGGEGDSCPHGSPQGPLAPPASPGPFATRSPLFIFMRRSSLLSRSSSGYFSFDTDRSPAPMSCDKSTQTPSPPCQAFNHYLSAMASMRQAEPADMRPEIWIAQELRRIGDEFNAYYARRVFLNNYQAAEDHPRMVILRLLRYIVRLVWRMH
From the text: as §2

[5] = molecular target: Bc12:Bim heterodimeric complex (Homo sapiens, UniProt P10415); experiment: ELISA of hybridoma supernatants on glutathione plates coated with GST_Bc12 complexed with Bim peptide; format: binding; conditions: for antigen reactivity of hybridoma supernatants (OD450): FIG. 1, serially diluted supernatants, controls Bc1xL:Bim, Bc12 and Bc1xL monomers, BSA; for hybridoma supernatant reactivity among a more exhaustive range of antigens: FIG. 2, antigens include Mcl1 monomer and Mc11:Bim heterodimeric forms
Chain of Bc12:Bim heterodimeric complex (P10415 whole entry, the tested form may be a part): as the sequence (P10415 whole entry, one chain of several) above
Chain of Bc12:Bim heterodimeric complex (O43521 142-161 partner limits assumed): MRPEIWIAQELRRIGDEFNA
Description: This class of heterodimer specific Bc12:Bim reactive monoclonal antibodies are otherwise known as “HSB2B”. […] As controls, reactivity with Bc1xL:Bim, Bc12 and Bc1xL monomers, and bovine serum albumin (BSA) were also screened against. To adhere the Bc1xL and Bc12 to the plates, each was expressed as a recombinant fusion protein with GST at the N-terminus (i.e. GST_Bc12 and GST_Bc1xL). Once adhered to the plate, incubations were either performed with a Bim peptide (which fits into the BH3-binding pocket of Bc12 family members), or PBS (thus retaining the monomeric confirmation). Hybridomas supernatants were subsequently incubated with the coated antigens and detected with HRP conjugated anti-mouse IgG. The reaction was developed with TMB substrate and stopped with sulphuric acid. Gluathione plate wells were scanned using a wavelength filter with an optical density of 450 nanometres (OD450).
As a GST fusion protein (GST_Mc11), HSB2B hybridoma supernatant reactivity was tested against the Mc11 monomeric form, or the heterodimeric forms (created by, either, incubation of Bim peptide (as for FIG. 1), or by covalently linking the Bim peptide to the GST_Mc11). As for FIG. 1, the HSB2B mAbs show specific reactivity with the epitopes induced following the complexing of Bc12 with Bim.

[6] = molecular target: T3, GST_Bc12 (Bc12 monomer) (human, UniProt P10415 1-218, limits assumed); experiment: ELISA, serially diluted hybridoma supernatant on glutathione plates
T3 construct: also called Bcl2 monomer; not shown: GST (glutathione S-transferase) fused at the N-terminus
T3 sequence (P10415 1-218 limits assumed): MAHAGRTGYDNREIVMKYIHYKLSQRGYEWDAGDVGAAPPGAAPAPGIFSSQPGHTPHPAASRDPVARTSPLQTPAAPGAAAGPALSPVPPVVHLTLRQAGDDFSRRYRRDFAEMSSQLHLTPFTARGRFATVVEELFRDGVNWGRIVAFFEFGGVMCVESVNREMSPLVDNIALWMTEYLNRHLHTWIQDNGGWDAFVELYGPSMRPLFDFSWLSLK
Description: as §1

[7] = molecular target: Bc12:BAX heterodimers (Homo sapiens, UniProt P10415); experiment: ELISA reactivity with different Bc12 and Bc1_XL heterodimers; format: binding; conditions: FIG. 8; signal relative to Bc12:BIM heterodimer
Chain of Bc12:BAX heterodimers (P10415 whole entry): as the sequence (P10415 whole entry, one chain of several) above
Chain of Bc12:BAX heterodimers (Q07812 whole entry partner): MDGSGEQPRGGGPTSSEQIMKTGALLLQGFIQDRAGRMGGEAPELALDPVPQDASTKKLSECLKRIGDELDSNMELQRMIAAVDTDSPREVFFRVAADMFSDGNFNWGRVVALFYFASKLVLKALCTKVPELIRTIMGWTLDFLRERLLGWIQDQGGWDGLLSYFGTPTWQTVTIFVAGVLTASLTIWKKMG
From the text: as §2

[8] = system: breast cancer tissue; experiment: IHC on FFPE breast cancer tissue; conditions: FIG. 6; biopsies of two breast cancer patients; three biopsy areas combined
From the text: The present anti-BC12/BINI antibodies are labelled “HSB2B” and a clone number (see Table A); “HSBXB” is an antibody against Bc1-x1/Bim and “HSMCB” is an antibody against MCL-1/BIM. Using an analogous staining method to that described in FIG. 5, serial sections of two different patients' breast cancer biopsies (“Breast Cancer Patient 1 & 2”) were stained at the same time, under the identical conditions for relative reactivity with HSB2B mAbs 2H3 and 10C10, HSMCB and HSBXB. Cytoplasmic staining levels of individual cells from three different biopsy areas for each patient biopsy were combined and plotted as dot/bar graphs. […] The acquisition of data following staining with different HSA classes is planned to be of clinical utility to determine the relative dependencies of different cancers on different Bc12 family members.

[9] = system: small cell lung cancer tissue; experiment: IHC on FFPE small cell lung cancer tissue; conditions: for cytoplasmic staining level (Mean Cytoplasmic OD) of tumor cells versus negative control: FIG. 4 (ii), four biopsy areas; for cytoplasmic staining level (Mean Cytoplasmic OD) of tumor cells versus negative control / cytoplasmic staining level of individual cells versus negative control: Mann Whitney ****p<0.001; for reactivity by IHC with small cell lung cancer tissue: FIG. 4, FFPE secondary (colon) tumor biopsy, anti-mouse IgG HRP, DAB; for cytoplasmic staining level of individual cells versus negative control: FIG. 5 (ii), three biopsy areas combined
From the text: Serial sections of a FFPE secondary (colon) tumor biopsy were stained with the HSB2B clones or, as a negative control, no primary antibody (“neg control”). Antibody binding was detected with anti-mouse IgG HRP and developed using a DAB substrate to yield a brown stain. Nuclei were counterstained blue with Hematoxylin. Four corresponding biopsy areas (A-D) were imaged per biopsy for analysis. FIG. 4 (i) is a panel of images showing the magnitude of staining with each HSB2B mAb for one of the four biopsy areas acquired for each stained biopsy. […] Cellular architecture (middle row) was then defined using HALO image analysis software (left hand color key, TIL=tumor infiltrating lymphocytes), most importantly to define the location of the tumor cells. […] (ii) Dot plot/bar chart showing the cytoplasmic staining levels (Mean Cytoplasmic OD) for each of the tumor cells for the four different biopsy areas. The dots represent cytoplasmic staining intensities for individual cells. Medians and interquartile ranges are plotted. (Mann Whitney) statistical comparisons of staining intensity were performed between cells from HSB2B stained tissue and negative (neg) control tissue for each of the four areas of biopsy. ****p<0.001.
The present anti-BC12/BIM antibodies are labelled “HSB2B” and a clone number (see Table A); “HSBXB” is an antibody against Bc1-x1/Bim and “HSMCB” is an antibody against MCL-1/BIM. […] FIG. 5 (ii) is cytoplasmic staining levels of individual cells from three different biopsy areas were combined and plotted as dot/bar graphs. The dots represent cytoplasmic staining intensities for individual cells. Medians and interquartile ranges are plotted. (Mann Whitney) statistical comparisons of staining intensity were performed between cells from HSA stained tissue and negative (neg) control tissue. **** p<0.001. […] The acquisition of data following staining with different HSA classes is planned to be of clinical utility to determine the relative dependencies of different cancers on different Bc12 family members.

Molecule	binding result [1]	binding result [2]	antigen reactivity of hybridoma supernatants (OD450) [5]	binding result [6]	cross-reactivity with Bc12:BAX heterodimer [7]	cytoplasmic staining level of individual cells versus negative control [8]	cytoplasmic staining level (Mean Cytoplasmic OD) of tumor cells versus negative control [9]	reactivity by IHC with small cell lung cancer tissue [9]	cytoplasmic staining level of individual cells versus negative control [9]	hybridoma supernatant reactivity among a more exhaustive range of antigens [5]	also measured
B1	no binding	no binding	–	–	–	–	–	–	–	–	–
B2	–	–	specific for the Bc12:Bim heterodimeric complex	–	–	–	–	–	–	–	ABT199 cross-reactivity [3]: low; physiological heterodimer reactivity (selectivity) [4]: restricted to Bc12:BIM
B3	no binding	no binding	–	no binding	–	–	–	–	–	–	–
B4	–	–	specific for the Bc12:Bim heterodimeric complex	–	cross-reactivity between Bc12:BIM and Bc12:BAX heterodimers	higher level of staining	higher level of cytoplasmic stain	can react with small cell lung cancer tissue	higher level of staining	specific reactivity for the Bc12:Bim complex	–
B5	–	–	specific for the Bc12:Bim heterodimeric complex	–	cross-reactivity between Bc12:BIM and Bc12:BAX heterodimers	higher level of staining	higher level of cytoplasmic stain	can react with small cell lung cancer tissue	higher level of staining	specific reactivity for the Bc12:Bim complex	–
B6	no binding	no binding	–	no binding	–	–	–	–	–	–	–

— patent US20240043529A1, “METHODS AND COMPOSITIONS RELATED TO BCL2 AND BIM HETERODIMER ANTIBODIES” (Eutropics Pharmaceuticals, Inc., priority 2020, published 2024)
